Source: patent publication US20260325634 (published 2026)

Target: T1, CD123 (IL-3R alpha) (human, UniProt P26951)
T1 chain: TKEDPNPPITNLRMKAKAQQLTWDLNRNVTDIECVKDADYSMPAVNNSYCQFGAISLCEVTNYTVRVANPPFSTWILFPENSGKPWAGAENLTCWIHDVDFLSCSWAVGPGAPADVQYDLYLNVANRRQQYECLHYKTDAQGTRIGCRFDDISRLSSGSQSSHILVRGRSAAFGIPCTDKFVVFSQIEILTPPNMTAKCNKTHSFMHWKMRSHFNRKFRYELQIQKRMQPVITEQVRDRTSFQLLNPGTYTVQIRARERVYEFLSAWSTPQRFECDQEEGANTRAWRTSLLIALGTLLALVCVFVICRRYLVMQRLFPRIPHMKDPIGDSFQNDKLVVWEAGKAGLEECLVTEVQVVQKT
Assay: BLI

Kd: < 1 pM
B1: AB1 (18B4D5) (antibody, V domains shown)
VH: EVKLQESGPGLVKPSQSLSLTCTVTGYSITSDYTWNWIRQFPGNKLEWMGYISFSGSTSYNPSLKSRLSITRDTSKNQFFLQLNSVTTEDTATYYCARGLDYWGQGTTLTVSS
VL: DIVMTQSPAIMSASLGERVTMTCTASSSISSSYLYWYQQKPGSSPKLWIYSTSNLASGVPARFSGSGSGTSYSLTISSMEAEDAATYYCHQLHRSPWTFGGGTKLEIKR
